Experimental findings from the Immune Epitope Database (IEDB) are described below.

Assay [1] has as its target HLA-A*02:01. As to the kind of experiment: IEDB peptide-MHC binding, purified MHC/competitive/fluorescence; filed as Kd, often an IC50 or EC50 that approximates it; ≥ and ≤ were set here for values at or beyond the usual limits of such assays. The note with it: source organism: Campylobacter jejuni subsp. jejuni NCTC 11168 = ATCC 700819.
Assay [2] addresses HLA-A*02:03. Described as above. The note with it: source organism: Campylobacter jejuni subsp. jejuni NCTC 11168 = ATCC 700819.
Assay [3] concerns the target HLA-A*02:11. The description is as above. The note with it: source organism: Campylobacter jejuni subsp. jejuni NCTC 11168 = ATCC 700819.
Assay [4] concerns the target HLA-A*02:12. The assay is described as above. The note with it: source organism: Campylobacter jejuni subsp. jejuni NCTC 11168 = ATCC 700819.
In assay [5] the target is HLA-A*02:16. The assay is described as above. The note with it: source organism: Campylobacter jejuni subsp. jejuni NCTC 11168 = ATCC 700819.
The target of assay [6] is HLA-A*02:19. The assay is described as above. The conditions noted are these: source organism: Campylobacter jejuni subsp. jejuni NCTC 11168 = ATCC 700819.
Assay [7] concerns the target HLA-A*03:01. Described as above. The conditions noted are these: source organism: Campylobacter jejuni subsp. jejuni NCTC 11168 = ATCC 700819.
Assay [8] concerns the target HLA-A*23:01. The description is as above. The conditions noted are these: source organism: Campylobacter jejuni subsp. jejuni NCTC 11168 = ATCC 700819.
In assay [9] the target is HLA-A*24:03. The description is as above. The conditions noted are these: source organism: Campylobacter jejuni subsp. jejuni NCTC 11168 = ATCC 700819.
Assay [10] deals with HLA-A*26:01. The description is as above.
Assay [11] addresses HLA-A*29:02. The description is as above. The conditions noted are these: source organism: Campylobacter jejuni subsp. jejuni NCTC 11168 = ATCC 700819.
The target of assay [12] is HLA-A*68:02. The description is as above. The note with it: source organism: Campylobacter jejuni subsp. jejuni NCTC 11168 = ATCC 700819.
Assay [13] has as its target HLA-A*69:01. Described as above. The note with it: source organism: Campylobacter jejuni subsp. jejuni NCTC 11168 = ATCC 700819.
The target of assay [14] is HLA-B*15:01. The assay is described as above.
In assay [15] the target is HLA-B*15:17. Described as above.
Assay [16] concerns the target HLA-B*18:01. Described as above.
Assay [17] addresses HLA-B*27:03. The description is as above.
Assay [18] addresses HLA-B*39:01. The description is as above. The conditions noted are these: source organism: Campylobacter jejuni subsp. jejuni NCTC 11168 = ATCC 700819.
The target of assay [19] is HLA-B*46:01. The description is as above.
The target in assay [20] is HLA-B*51:01. Described as above.
In assay [21] the target is HLA-B*57:01. The description is as above.
Assay [22] has as its target HLA-A*02:01. Briefly: IEDB peptide-MHC binding, purified MHC/direct/fluorescence; filed as Kd, often an IC50 or EC50 that approximates it; ≥ and ≤ were set here for values at or beyond the usual limits of such assays. The conditions noted are these: source organism: Homo sapiens.
Assay [23] concerns the target HLA-A*25:01. Briefly: IEDB peptide-MHC binding, purified MHC/competitive/fluorescence; filed as Kd, often an IC50 or EC50 that approximates it; ≥ and ≤ were set here for values at or beyond the usual limits of such assays. The note with it: source organism: Homo sapiens.
Assay [24] addresses HLA-A*80:01. The description is as above. The note with it: source organism: Homo sapiens.
The target in assay [25] is HLA-A*03:01. As to the kind of experiment: IEDB peptide-MHC binding, purified MHC/direct/fluorescence; filed as Kd, often an IC50 or EC50 that approximates it; ≥ and ≤ were set here for values at or beyond the usual limits of such assays. The note with it: source organism: Cryptosporidium parvum Iowa II.
Assay [26] concerns the target HLA-A*25:01. The description is as above. The conditions noted are these: source organism: Cryptosporidium parvum Iowa II.
Assay [27] addresses HLA-A*26:01. Described as above. The note with it: source organism: Cryptosporidium parvum Iowa II.
For assay [28], the target named is HLA-A*80:01. Described as above. The note with it: source organism: Cryptosporidium parvum Iowa II.
Assay [29] addresses HLA-B*15:17. The description is as above. The note with it: source organism: Cryptosporidium parvum Iowa II.
In assay [30] the target is HLA-B*18:01. The description is as above. The conditions noted are these: source organism: Cryptosporidium parvum Iowa II.
For assay [31], the target named is HLA-B*46:01. Described as above. The conditions noted are these: source organism: Cryptosporidium parvum Iowa II.
The target in assay [32] is HLA-B*58:01. As to the kind of experiment: IEDB peptide-MHC binding, cellular MHC/competitive/fluorescence; ≥ and ≤ were set here for values at or beyond the usual limits of such assays. The note with it: source organism: Human herpesvirus 4 strain B95-8.
The mark [33] stands for this setting: source organism: Campylobacter jejuni subsp. jejuni NCTC 11168 = ATCC 700819.

The Kd is the free concentration of one partner at which half of the binding sites on the other are occupied at equilibrium, for simple one-to-one binding. A higher Kd goes with lower affinity. As for LELAEITAE, the Kd in assay [1], in assay [2], in assay [3], in assay [4], in [5] and in assay [6] was at least 20 µM throughout. Moreover, the Kd in [7], in assay [8], in [9], in assay [10] (setting [33]), in assay [11] and in [12] was at least 20 µM throughout. In addition, the Kd was at least 20 µM in [13]; at least 20 µM in [14] (setting [33]); at least 20 µM in assay [15] (setting [33]); 0.511 µM in assay [16] (setting [33]); at least 20 µM in [17] (setting [33]); at least 20 µM in assay [18]. The Kd in [19] (setting [33]), in [20] (setting [33]) and in [21] (setting [33]) was at least 20 µM in each case.
On to HLLCQAFSV, for which the Kd in assay [22] was 0.0002 µM; in assay [23], at least 20 µM; in assay [10] (source organism: Homo sapiens), at least 20 µM; in assay [24] it was at least 20 µM; in assay [14] (source organism: Homo sapiens), at least 20 µM; in assay [15] (source organism: Homo sapiens) it was at least 20 µM. For the same sequence, the Kd in [16] (source organism: Homo sapiens), in assay [17] (source organism: Homo sapiens), in [19] (source organism: Homo sapiens), in assay [20] (source organism: Homo sapiens) and in [21] (source organism: Homo sapiens) was at least 20 µM each time.
As to RAIMTTWTV, the Kd in assay [25] was at least 20 µM; in assay [26] it was at least 20 µM; in assay [27], at least 20 µM; in assay [28], at least 20 µM; in assay [29], 0.06 µM; in assay [30], at least 20 µM. The dissociation constant (Kd) in assay [31] was at least 20 µM.
As a reminder, the IC50 is the point on the concentration scale where inhibition reaches its midpoint. High values mean weaker potency, low ones greater potency. Take NAAEPEQPW: the IC50 in assay [32] was 5 µM.
